Test: yeast display, Sf9 membrane polyspecificity reagent, FACS + sequencing; frameworks hold sequencing errors
Procedure, shortened: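 Synthetic nanobody libraries on Saccharomyces cerevisiae BJ5465 were galactose-induced for 36–48 hours, stained 1 hour at 4 °C with 10% biotinylated, detergent-solubilized Sf9 membrane reagent and enriched on streptavidin microbeads. FACS then separated cells into low and high (top ~1%) gates by anti-HA (expression) and streptavidin (reagent binding) fluorescence. Genes were colony-PCR amplified, MiSeq 2 × 250 sequenced and CDR-length filtered. A clone's polyreactivity label is that of its gate of origin.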

Row | Sequence | polyreactivity (PSR sort gate)
1 | QVQLVESGGGLVQAGGSLLLSCAASGSTFGANAMGWYRQAPGKEREFVAAISRSGVRTYYADSVKGRFTISRDNAKNTVYLQMNSLKPEDTAVYYCAADGYWWTYTRYDYWGQGTQVTVSS | low polyreactivity
2 | QVQLVESVVGLVQAGGSLRVSCAAYGRTFWYYPMGWYRQAPGKERELVAGITFTGGRTYYADSVKGRFTISRDNAKHTVYLQMNSLKPEDTAVYYCAAAGLVVGRKDRDGYWGLGTQVTVSS | low polyreactivity
3 | QVQLVESGGCLVQAGGSLRLRCAASGFMFGSYAMGWYRQAPGKERELVAAISRRGSSTSYADSVKGRFTISRDNAKNTVYLQMNSLKPEDTAVYFCAPPYLKKWGYYFDGNYWGQGTQVTVSS | high polyreactivity
4 | QVQLVESGGGLVQAGGSLRLSCAASGSISSVYGMGWYRQAPGKERELVAAITSNGGSTYYADSVKGRFTISRDNAKNTVYLQMNSMKPEDTAVYYCAAKYGSRGYYSRGRYYWGQGTQVTVSS | high polyreactivity
5 | QVHLVESGGGLDQAGGSLRLSCAASGSIFPHNAMVWYIQAPGKERELVASITSRCGITYYADSVKGRFTISRDNAKNTVYLQMNRLKPEDTAVYYCAARNNVEYLTIYKPYSFGSDSWGQGTQVTVSS | low polyreactivity
6 | QVQLVESGGGLVQAGGSLRLSCAASGFTFTSNAMGWYRQAPGKERELVAVISTRGGSTYYADSVKGRFTISRDNAKNTVYLQMNSLKPEDTAVYYCAARQIPNSVLVHYGYWGLGTQVTVSS | high polyreactivity
7 | QVQLVESGGCLVQAGGSLRLSCAASGRIFRRYAMGWYRQAPGKERELVASITCGGSSTSYADSVKGRFTISRDNAKNTVYLQMNSLKPEDTAVYYCAKGGVFGTYLNEYDYCGQGTQVTVSS | low polyreactivity
8 | QVQLVESGGGLVQAGGSLRLSCAASGSISYYAMGWYRQAPGKERELVAAISSSGGSTYYADSVKGRFTISRDNAKNTVYLQMNSLKPEDTAVYYCAAYGRYGAHTGYGSWGQGTQVTVSS | high polyreactivity
9 | QVQLVESGGGLVQAGGSLRLSCAASGRIFIRAMGWYRQAPGKERELVAGITNGGITYYADSVKGRFTISRDNAKNTVYLQMISLKPEDTAVYFCNDRSSSVDYNYDYWGQGTQVTVSS | low polyreactivity
10 | QVQLVDSGGGLVQAGGSLRLSCAASGSIFYQYAMGWYRQAPGKQRELVAAISRSGGSTYYADSVKGRFTISRDNAKNTVYLQMISLKPEDTAVYYCAARAVRAAYDYWGLGTQVTVSS | low polyreactivity
11 | QVQLVESGGGLVQAGASLRLSCAASGRIFNIYALGWYRQAPGKERELVADITSGGTTYADSVKWRFTISRDNAKNTVYLQMNSLKPEDTAVYYCAAVYRYRNRRDYDYWGQGTQVTVSS | high polyreactivity
12 | QVQLVESGGGLVQAGGSLRLSCAAYGLIFTHNTMGWYRQAPGKERELVAAITTSGGTTYYADSVKGRFTISRDNAKNTVYLQMNSLKPEDTAVYYCNALYLSTRSGDYWGQGTQVTVSS | high polyreactivity
13 | QVQLVESGGGLVQAGGSLRLSCAASGSIFDGNAMGWYRQAPGKERELVAAISRRGGSTYYADSVKGRFTISRDKAKNTVYLQMNSLKPEDTAVYYCNAYLSYFDGNYWGQGTQVTVSS | high polyreactivity
14 | QVQREESGGGLVQAGGSLRLSGAASGIIFHPYAMGWYRQAPGKERELVAAISWSGDGTYYADSVKGRFTISRDNAKNTVYLQMNSLKPEDTAVYYCNAFSQSWNFYGDGDYWGQGTQLTVSS | low polyreactivity
15 | QVQLVESGGGLVQAGGSLRLSCAATGFIFYEYPMGWYRQAPGKERELVASINSDGRTDYADSVKGRFTISRDNAKNTVYLQMNSLKPEDTAVYYCAAALGYYGRHPYDYWGQGTQVTVSS | low polyreactivity
16 | QVQLVESGGGLVQAGVSLRLSCAASGSTFTYNAMGWYRQAPGKERELVAAISYGGGRTYYADSVKGRFTISRDNAKNTVYLLMNSLKPEDTAVYYCNRYRYSYVEFDYWGQGTQVTVSS | high polyreactivity
17 | QVQLVESGGGLVQAGGSLRLSCAASGTFPGNAMGWYRQSPGKERELVATITRGGRTYYADSVKGRFTISRDNAKHTVYLQMNSLKPEDTAVYYCNTRVYFGKIRGYDYWGQGTQVTVSS | high polyreactivity
18 | QVQLVESGGGLVQAGGSLRLSCAASGLIFVGYVMGWYRQAPGKERELVAAITSSSGSTYYADSVKGRFTISRDNAKNTVYLQKNSLKPEDTAVYYCAAEWGYYWYYDSEYWGQGTQVTVSS | high polyreactivity
19 | QVQLVESGGGLVQAGGSLRLICAASGFIFGKYVMGWYRQAAGKERELVAAITSSGGRTYYADSVKGRFTISRDNAKNTVYLQMNSLKPEDTGVYYCAARYVSYWPWFEYDYWGQGTQVTVSS | high polyreactivity
20 | QVQLVESGGGLVQAGGSLRLSSAASGRIFYHNTMGWYRQAPGKERELVAAIRSGSSTYYADSVKGRFTISRDNAKNTVYLQMNSLKPEDTAVYYCNARPWYSWGVDYDYWGQGTQVTVSS | low polyreactivity
21 | QDQLVDSGGGLVQAGGSLRLSCAASGRIFGYNSMGWYRQAPGKERELVASISSDGRTYYADSVKGRFTISRDNAKNTVYLQMNSLKPEDTAVYYCAAKEWYFTTWYTYYERDYWGQGTQVTLSS | high polyreactivity
22 | QVQLVESGGGLVQAGGSLRLSCAASGSIFDSYAMGWYRQAPGKERELVAAISRSGSRTYYADSVKGRFTISRDNAKNTVYLQMNSLKPEDTAVYYCAAGLSGYSRKIYYWGQGTQVTVSS | high polyreactivity

Row | Sequence | polyreactivity (PSR sort gate)
23 | QDQLVESGGCLVQAGGSLRLSCAASGSIFKTYAMGWYRQAPGKERELVAAISWRGGSTYYADSVKGRFTISRDNAKNTVYLQMISLKPEDTAVYYCAAGRKFGTRTLWYRYGYWGQGTQVTVSS | high polyreactivity
24 | QVQLVESGGCLVQAGGSLRLSCASSGFTFDIYAMGWYRQAPGKERELVATISFTGDTTSYADSGKGRFTISRDNAKNTVYLQMNSLKPEDTAVYYCAADGSYPLSVGRENLHYAEFDYWGKGTQVTVSS | low polyreactivity
25 | QVQLVESGGGLVQAGGSLRLSCAASGSIFNGNAMGWYRQAPGKERELVAAITRRGGRTYYADSVKGRFTISRDNAKNTVYLQMNSLKPEDTAVYYCNAYSKAVQGGYYYWGQGTQVTVSS | high polyreactivity
26 | QVQLVESGGGLVQAGGSLRLSCAASGSILDLNAMGWYRQAPGKERELVAAISYSGDSTYYADSVKGRFTISRDNAKNTVYLQMNSLKPEDTAVYYCNAASFSDQGTLNHFYDWGQGTQVTVSS | low polyreactivity
27 | QVQIVESGGGLVQAGGSLRLSCAASGRIIGTYAMGWYRQAPGKERELVATISYSSGRTYYADSVKGRFTISRDNAKNTVYLQMNSLKPEVTAVYYCAAVGTGSSLRYDYWGQGTQVTVSS | high polyreactivity
28 | QVQLVESGGGLVQAGGRLRLSCAASGIIFPRYMGWYRQAPGKERELVAAIRWSSDDTNYADSVKGRFTISRDNAKNTVYLQMNSLKPEDTAVYYCAAHSYYDRTIQFEFSARTYDYWGQGTQVTVSS | low polyreactivity
29 | QVQLVESGGGIDQAGGSLRLICAASGRTFTQYAMRWSRQAHGKERELVAAITRSGGSTYYADSVKGRFTISRDNAKNTVYVLMNILKPEDTAVYYCAKRPAYRSTQTFDFWGQGTQVTVSS | high polyreactivity
30 | QVQRVESGGGLVQAGGSLRLSCAASGSIFKYYTMGLYRPAPGKERELVAYISSGGSTKYADSVKGRFTNSRDNAKNTVYLQMNSLKPEDTAVYYCAKRYYYFYPDYDFLGQGTQVTVSS | high polyreactivity
31 | QVQLVESGGGLVQAGGSLRLSCAASGNTFIYYAMGWYRQAPGKERELVAAITWSGGSTYYADSVKGRFTISRDNAKNTVYLQMNSLKPEDTAVYYCAKFTHNYYYWGQGTQVTVSS | high polyreactivity
32 | QVHLVESGGGLVQAGGSLRLSCAASGRTFPSYAMGWYRQAPGKERELVAAISSSGGSTYYADSVKGRFTISRDNAKNTVYLQMNSLKPEDTAVYYCAAATPSGYYYWGQGTQVTVSS | high polyreactivity
33 | QVQLVESGGGLVQAGGSLRLSCAASGSTFDFYAMGLYRQAPGKERELVAAITSGGTTNYADSVKGRFTISRDNAKNTVYLQMNSLKPEDTAVYFCNAYYLGWYRVRAVTGYDYCGQGTQVTVSS | low polyreactivity
34 | QVQLVESGGGLVQAGGSLRLSCAASGNIFYRNGMGWYRQAPGKEREFVAAISRRGGSTYYADSVKGRFTISRDNAKNTVYLQMNSLKPEDTAVYYCATRYWPTNKGEYWGQGTQVTVSS | high polyreactivity
35 | QVQLVQSGGGLVQAGGSLRLSCAASGRTFGYYAMGWYRQAPGQERELVAAITRTGGSTHYADSVKGRFTISRDNAKNTVYVQMNSLKPVDTAVYYCARDYRYTIPYDYWGQGTQVTVSS | low polyreactivity
36 | QVLLVDSGGGLVHAGGIHRLSCHASVGIFSWYDMGLYRQAPGKERELVAAISWSGGSTYYAYSVKGRFTISRDNAKNTVYLQMNSLKPEDTAVYYCAAYTADYYDYWGQGTQVTVSS | high polyreactivity
37 | QVQLVESGGGLVQAGGSLRLSCAASGSIFGYYTMGWYRQAPGKERELVARISSSGARTYYADSVKGRFTISRDNAKNTVYLQMNSLKPEDTAVYYCNAQFGYRTIYYISQYYEYGYWGQGTQVTVSS | high polyreactivity
38 | QVQLVESGGGLVQAGGSLRLSCAASGIIFQSYTMGWYRQAPGKERELVAAIDSGGSTYYADSVKGRFTISRDNAKNTVYVQMNSLKPEDSAVYYCATDYPLYWSTLYDYDYWGQGTQVTVSS | low polyreactivity
39 | QVQLVESGGGLVQAGGSLRLSCAASGRTFGSYTMGWYRQAPGKERELVAAISWSGGRTYYADSVKGRFTISRDNAKNTVYLQMNSLKPEDTAVYYCNADAEVVPGEYDYWGQGTQVTVSS | low polyreactivity
40 | QVQLVESGGGLVQAGGSLRLSCAASGFTFGDYAMGWYRQAPGKERELVAAISWSGGRTSYADSVKGRFTISRDNAKNTVYLQMNSLKPEDTAVYYCAARYRYAYTSFPFYYWGQGTQVTVSS | high polyreactivity
41 | QVQLVESAGGLVQAGGSLRLSCAASGSIFSDNPMGWYIQAPGKERALVASITNSGSTNYADSVKGRFTISRDNAKNTVYLQMNILKPEDTAVYYCAFSFLYTYDNWGQGTQVTVSS | low polyreactivity
42 | QVQLVESGGRLVQAGGSLRLSCAASGFTFPNYAMGWYRQAPGKERELVAAISWSGTSTYYADSVKGRFTISRDNAKNTVYLQMNSLKPEDTAVYDCAAKYQRGGYYESYWLRTGYYWGQGTQVTVSS | high polyreactivity
43 | QVQLVESGGGLVQAGGSLRLSCAASGSTFIDYAMGWYRQAHGKERELVAGISSGDSTDYADSVKGRFTISRDNAKNTVYLQMNSLKPEDTAVYYCNADWNPTERWFYWYTPLGYDYWGQGTQVTVSS | low polyreactivity
